These results are taken from US20090036382A1, “TGF-Beta Modulators and Use Thereof” (Universita' Degli Studi Di Padova, priority 2006, published 2009).

One data set relates to pro TGF-β1. Nature of the data set: CAGA12-lux luciferase reporter in HEK293T cells co-transfected with pro TGF-β1 vector. In kind it is cell-based, human. The text has this:
(§1) • The construct for emilin 1 expression was engineered in pCS2 vector (Rupp R. A. et al., 1994, Genes Dev 8, 1311-1323) (for a physical map of the vector, see the site faculty.washington.edu/rtmoon/pcs2+.html) as described (Zanetti M. et al., 2004, Mol Cell Biol 24, 638-650); the vector used for proTGF-β expression in MEF and HEK293T cells is pCDNA3.1 (Invitrogen). Vectors containing the coding sequence for human pro TGF-β are described in Young and Murphy-Ullrich, 2004 (Young and Murphy-Ullrich, 2004, J Biol Chem 279, 38032-38039). The human pro TGF-β cDNA sequence is reported in the data bank (NP_000660; protein 000651). • The vector for Furin/SPC 1 expression is pCDNA3.1 (Invitrogen) • p15 and CAGA 12 promoter fragments are described in Jonk L. J. et al., 1998, J Biol Chem 273, 21145-21152 […]. • Constructs containing Flag sequences are described in Young G. D and Murphy-Ullrich J E, 2004, J Biol Chem 279, 38032-38039. • Constructs containing the Flag epitope (e.g. Flag-EMI-domain-GPI) were prepared as described in Chubet R G et al. Biotechniques 1996; 20(1):136-141 and detected by anti-Flag antibody (Kodak Inc.). • Constructs containing the GPI anchor were prepared as described in the Manual “Current Protocols in Cell Biology” Howard R. Petty Wayne State University, Detroit, Mich.; Juan S. Bonifacino, Mary Dasso, Joe B. Harford, Jennifer Lippincott-Schwartz, and Kenneth M. Yamada (eds.), Copyright C 2003 John Wiley & Sons, Inc. (GPI-anchor). In the construct Flag-EMI domain-GPI, the Flag sequence was inserted at the N-terminus after the signal peptide, while the GPI-anchor sequence was placed at the COOH-terminal end. • The construct emilin 1-KDEL was obtained by inserting the KDEL coding sequence described by Munro S., and Pelham, H. R., 1987, Cell 48, 899-907 upstream the emilin 1 STOP codon. • The construct containing the type II TGF-β receptor with HA epitope was described in Wrana J. L. et al., 1994, Nature 370, 341-347. • supplier of the drugs used: SP600125 (Calbiochem), SB431542 (Tocris). • Purified recombinant LAP and TGF-β1 proteins were purchased from (R&D Systems)
(§2) To verify how emilin or the EMI domain can contrast TGF-β1 activity independently from receptor binding, HEK293T cells were transfected with a construct coding luciferase placed under control of a TGF-β activated promoter: CAGA12-lux (Jonk et al., 1998) alone or in combination with a emilin1 expression vector (500 ng) as shown in FIG. 2B. After transfection, cells were treated (black bar) or not treated (white bar) with 5 ng/ml recombinant TGF-1 (lanes 1 and 2). Column bars from 3 to 6 report luciferase expression values in experiments with cells co-transfected with the expression vector for emilin1 (or EMI-domain or emilin1ΔEMI) alone (white bars) or in combination with the vector encoding pro TGF-β1 (black bars). Values show the mean±st. dev.
As further validation of the above observations, HEK293T cells were cotransfected with expression plasmids carrying the cDNAs shown in the summary scheme above the figure, along with CAGA12-lux and CMV-lacZ constructs, and luciferase expression levels were measured.
A general note: A reporter such as luciferase makes a cellular process visible.

The next data set concerns the target T1, pro TGF-β (Homo sapiens, UniProt P01137).
T1 construct: expressed in transfected cells; host or cells: HEK293T
Nature of the data set: Co-immunoprecipitation / Western blot of EMI domain or emilin1 with pro TGF-β in HEK293T cells. The class given is binding. The settings on record: HEK293T cell extracts or culture medium; anti-Flag / anti-LAP IP; FIG. 4A-4C. The source says:
• The construct for emilin 1 expression was engineered in pCS2 vector (Rupp R. A. et al., 1994, Genes Dev 8, 1311-1323) (for a physical map of the vector, see the site faculty.washington.edu/rtmoon/pcs2+.html) as described (Zanetti M. et al., 2004, Mol Cell Biol 24, 638-650); the vector used for proTGF-β expression in MEF and HEK293T cells is pCDNA3.1 (Invitrogen). Vectors containing the coding sequence for human pro TGF-β are described in Young and Murphy-Ullrich, 2004 (Young and Murphy-Ullrich, 2004, J Biol Chem 279, 38032-38039). […]

For another data set, the system named is pro TGF-β processing. Nature of the data set: Cell-mixing experiment, responder (CAGA12-lux) and stimulator (proTGF-β) HEK293T cells. In kind it is cell-based. The settings on record: emilin 1 cotransfected in S cells or only in R cells; FIG. 6A. How it is done:
To determine where emilin and pro TGF-β interact (whether intracellularly or extracellularly), two types of HEK293T cells, responder (R) and stimulator (S), were prepared by transfecting the CAGA12-lux plasmid in the former and of the proTGF-β coding plasmid in the latter cells. Therefore, R cells respond to TGF-β by activating the luciferase reporter gene, while S cells produce TGF-β and can stimulate the former cells only if TGF-β is secreted. To determine where emilin-1 blocks TGF-β processing, R or S cells were cotransfected with the emilin 1 coding plasmid, and this transfection is indicated with the initial +E under the corresponding column bar in FIG. 6A.
To be able to compare the results obtained under the various conditions, all cells were cotransfected also with the CMV-lacZ vector. Mock refers to cells transfected with CMV-lacZ plasmid alone. […] Therefore, the inhibition of pro TGF-β processing by emilin 1 occurs in the extracellular compartment.

In another data set the test system is mature TGF-β1. Nature of the data set: CAGA12-lux luciferase reporter in HEK293T cells treated with recombinant TGF-β1. The class given is cell-based. The following applies: 5 ng/ml recombinant TGF-β1, expression vector 500 ng, FIG. 2B. The method, then:
as §2

The target in a further data set is T2, pro TGF-β1 processing (Homo sapiens, UniProt P01137).
T2 construct: Flag; expressed in transfected cells; host or cells: HEK293T (A6); mouse embryo fibroblasts (A8)
T2 sequence (P01137 30-390): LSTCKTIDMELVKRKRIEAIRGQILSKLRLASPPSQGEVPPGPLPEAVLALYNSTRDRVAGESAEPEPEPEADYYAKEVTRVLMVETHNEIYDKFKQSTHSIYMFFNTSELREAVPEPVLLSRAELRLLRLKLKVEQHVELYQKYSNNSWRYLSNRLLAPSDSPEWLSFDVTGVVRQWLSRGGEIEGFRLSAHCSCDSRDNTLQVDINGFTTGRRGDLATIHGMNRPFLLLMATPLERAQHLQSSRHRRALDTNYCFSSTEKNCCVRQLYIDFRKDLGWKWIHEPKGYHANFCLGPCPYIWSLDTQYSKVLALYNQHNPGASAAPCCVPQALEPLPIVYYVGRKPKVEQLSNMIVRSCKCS
Nature of the data set: Western blot of pro TGF-β1 conversion to LAP and mature TGF-β1 in transfected HEK293T cells. In kind it is cell-based.
From the text: as §1
To verify whether emilin or its EMI domain inhibit TGF-β or its precursor, HEK293T cells were cotransfected with plasmids driving the expression of pro TGF-β1 (fused to the FLAG-domain, even though the antibody used were directed at LAP and TGF-β proteins) and emilin-1 (or EMI-domain). […] The anti-Flag antibody used was obtained from Kodak Inc; for the preparation of Flag constructs, see Younjg and Murphy-Ullrich (Young and Murphy-Ullrich, 2004).
As reported in the summary scheme above FIG. 5A, HEK293T cells were transfected with the plasmid encoding pro TGF-β1 (lane 1) and cotransfected with emilin-1 (lane 3) or treated with decanoyl-RVKR-CMK peptide (Decanoyl-Arg-Val-Lys-Arg-chloromethylketone, Alexis Corporation, Lausen, Switzerland) (lane 2) at a concentration of 100 μM. The peptide is an irreversible and competitive inhibitor of furin proprotein convertase and of other SPC family members (Proprotein Convertase); in addition, it inhibits pro-MMP2 dependent furin activation. The supernatant was then loaded on SDS-PAGE and detected by Western-blot with anti-TGF-β1 antibody. […] An increase of the precursor band in lanes 2 and 3 is […] to the decrease of TGF-β. Therefore it can be concluded that this assay detects an effect of emilin-1 on TGF-β1 processing that is similar to the effect of Furin inhibitors.
For orientation: In western blotting, separated proteins are transferred to a membrane and probed.

T1 sequence (P01137 30-390): as above

B1: emilin-1: emilin family extracellular matrix protein carrying an EMI domain, GenBank NP—008977; expressed from pCS2 vector by transfection (protein)
chain: ASYPPRGFSLYTGSSGALSPGGPQAQIAPRPASRHRNWCAYVVTRTVSCVLEDGVETYVKYQPCAWGQPQCPQSIMYRRFLRPRYRVAYKTVTDMEWRCCQGYGGDDCAESPAPALGPASSTPRPLARPARPNLSGSSAGSPLSGLGGEGPGESEKVQQLEEQVQSLTKELQGLRGVLQGLSGRLAEDVQRAVETAFNGRQQPADAAARPGVHETLNEIQHQLQLLDTRVSTHDQELGHLNNHHGGSSSSGGSRAPAPASAPPGPSEELLRQLEQRLQESCSVCLAGLDGFRRQQQEDRERLRAMEKLLASVEERQRHLAGLAVGRRPPQECCSPELGRRLAELERRLDVVAGSVTVLSGRRGTELGGAAGQGGHPPGYTSLASRLSRLEDRFNSTLGPSEEQEESWPGAPGGLSHWLPAARGRLEQLGGLLANVSGELGGRLDLLEEQVAGAMQACGQLCSGAPGEQDSQVSEILSALERRVLDSEGQLRLVGSGLHTVEAAGEARQATLEGLQEVVGRLQDRVDAQDETAAEFTLRLNLTAARLGQLEGLLQAHGDEGCGACGGVQEELGRLRDGVERCSCPLLPPRGPGAGPGVGGPSRGPLDGFSVFGGSSGSALQALQGELSEVILSFSSLNDSLNELQTTVEGQGADLADLGATKDRIISEINRLQQEATEHATESEERFRGLEEGQAQAGQCPSLEGRLGRLEGVCERLDTVAGGLQGLREGLSRHVAGLWAGLRETNTTSQMQAALLEKLVGGQAGLGRRLGALNSSLQLLEDRLHQLSLKDLTGPAGEAGPPGPPGLQGPPGPAGPPGSPGKDGQEGPIGPPGPQGEQGVEGAPAAPVPQVAFSAALSLPRSEPGTVPFDRVLLNDGGYYDPETGVFTAPLAGRYLLSAVLTGHRHEKVEAVLSRSNQGVARVDSGGYEPEGLENKPVAESQPSPGTLGVFSLILPLQAGDTVCVDLVMGQLAHSEEPLTIFSGALLYGDPELEHA
Turning to B1, in the data set on pro TGF-β1 (CAGA12-lux and CMV-lacZ, FIG. 6C), the “Luciferase expression stimulated by transfected pro TGF-β” value is “inhibits the stimulating action of transfected pro TGF-β”. In addition, in the data set on pro TGF-β1 (CAGA12-lux, co-transfection with pro TGF-β1 vector, FIG. 2B, 2C), the “Effect on luciferase expression induced by pro TGF-β1” value is “inhibits pro TGF-β”. Also, in the data set with pro TGF-β, the “Interaction with pro TGF-β (co-immunoprecipitation)” value was “co-precipitates”. For the same molecule, the “Activation of CAGA12-lux reporter on mixing R and S cells” value in the data set with pro TGF-β processing is given as “inhibits activation of the reporter construct”. Besides, the “Effect on luciferase expression induced by mature TGF-β” value in the data set with mature TGF-β1 is reported as “does not antagonize mature TGF-β”. Further, the “Conversion of pro TGF-β1 to LAP and mature TGF-β1 (band intensity)” value with pro TGF-β1 processing (HEK293T cotransfected, cell extracts anti-LAP, supernatants anti-TGF-β1, FIG. 4D) is “inhibit the conversion of pro TGF-β1”. Moreover, in the data set with pro TGF-β1 processing (HEK293T supernatant, anti-TGF-β1 Western-blot, emilin-1 cotransfected, peptide at 100 μM, FIG. 5A), the “Intensity of the band corresponding to mature TGF-β1” value is listed as “decreases”. Further, in the data set with pro TGF-β1 processing (HEK293T supernatant, anti-TGF-β1 Western-blot, emilin-1 cotransfected, peptide at 100 μM, FIG. 5A lanes 2 and 3), the “Precursor (pro TGF-β) band” value is reported as “increase”.
